From PMC11417388, “Trypanosome mRNA recapping is triggered by hypermethylation originating from cap 4” (Nucleic Acids Research, 2024)

Assays:
vvD1/D12 = target: T1, vvD1/D12 (Vaccinia virus WR, UniProt P04298)
T1 construct: gene OPG113

purified protein = substrate: Nc1ncnc2c1ncn2[C@@H]1O[C@H](COP(=O)(O)OP(=O)(O)OP(=O)(O)O)[C@@H](O)[C@H]1O; assay: purified protein; assay type: biochemical, Trypanosoma brucei; conditions: co-substrate 100 nM fully methylated cap 4 pRNA (p m6,2AmAmCm m3Um), 0.5 mM MgCl2, pH 8.5, 27 °C, labelled compound

C[S+](CC[C@H](N)C(=O)O)C[C@H]1O[C@@H](n2cnc3c(N)ncnc32)[C@H](O)[C@@H]1O (stereo partly drawn) [AdoMet]
cap methyltransferase assay on ppRNA substrates (vvD1/D12): cap methyltransferase activity was compared on ppAmAmCmUm and unmodified ppRNAs

B1: TbCe1 (Trypanosoma brucei brucei TREU927) (protein)
chain: MSATDVASELRSGAPEYVPTFLRCKQSENVTAFESPVVFLMFGCRGAGKSTQSTLLSKTYNLLYLSSGDIYKSGKQPFVELRKILNEHFGDGKERVYNGVVLDRFIANSEFEAFYVQTALRSVGLPVPFVFMLAIDQGLAAKRAEERGDNKGGNQRWRAVEQKAQAITANTVYAPIQCLKTIRVESDMTIDDVFNEIKTTIANQLPPDLFNLQLPREARREVEGTVLVEDYELYMELANDVHTVVGNLRGRRDSAPLSNVGAHLDKEYFSFANKRLRSQLTTMHVTLKADGLRFLVMKHKTRGYIGFPSAFTHCYELNDLFEGVEMAPKPYTELKKWMNDKSCELPADFLLDTEVVVHEKKPTLYIIDFIYFWGLDGRRMQFEQRLKVLREYFGDMKPQGQVIAMKDYVPINKIRTLVEEMKRRTELPVDGLIFQHNGSYRFGSDKFLIKWKPVHLCTVDFRLANGRVENGVWTFDLFVTDDFIEENGFREVAYPGATALIPASVVEENGLQNGMIIEMALSEKESVKKTSPNAPSEKTRWTFRNARNDKPSPNKYSIVTRICELMHVDLDELVSLCEKVPFYRNV
notes: expressed as His-Smt3 fusion in E. coli; tag removed by Ulp1; glycerol gradient purified
Km (purified protein): 0.21 µM
kcat (purified protein): 2.3 min⁻¹
